Patent US20240247042A1, “GLUCAGON LIKE PEPTIDE COMPOUNDS” (Novartis AG, priority 2021, published 2024)
Like-named read-outs stand apart in the source and are kept apart here. One block for each molecule: values may come before it.

Tests used:
human GLP1R (hGLP1R) [1] = target: T1, human GLP1R (hGLP1R) (Homo sapiens, UniProt P43220); assay: Human GLP1R cAMP agonist assay (GloSensor); format: cell-based
Target sequence in this assay (P43220 24-463): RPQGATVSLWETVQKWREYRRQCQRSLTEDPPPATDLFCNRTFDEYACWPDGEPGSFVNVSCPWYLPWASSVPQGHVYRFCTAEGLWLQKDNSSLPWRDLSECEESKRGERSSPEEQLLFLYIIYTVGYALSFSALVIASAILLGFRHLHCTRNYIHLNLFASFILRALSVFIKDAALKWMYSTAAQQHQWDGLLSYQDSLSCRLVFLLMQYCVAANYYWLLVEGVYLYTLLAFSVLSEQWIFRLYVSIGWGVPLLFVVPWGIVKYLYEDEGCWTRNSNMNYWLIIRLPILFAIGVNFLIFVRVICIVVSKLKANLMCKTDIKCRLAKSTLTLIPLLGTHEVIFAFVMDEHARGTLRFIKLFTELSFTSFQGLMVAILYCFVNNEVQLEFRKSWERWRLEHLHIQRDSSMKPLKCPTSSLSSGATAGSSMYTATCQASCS
Description: (§1) Compounds described herein were tested in the following cellular assays that measures the intracellular cAMP concentration. The cAMP is generated by the activation of GLP1R. EC50 is defined as the concentration of the compound that leads to half of the maximum response (after baseline correction).
The agonist activity of compounds was determined using the GloSensor™ cAMP Assay (Promega Corp.), which measures changes in the intracellular concentration of cAMP after ligand activation of GPCRs. The assay uses a biosensor encoded by pGloSensor™-22F cAMP plasmid (Promega, cat #E2301) with cAMP binding domains fused to a mutant form of Photinus pyralis luciferase. Binding to cAMP causes conformational changes that promote large increases in light output, which can be measured by a luminescence detector. […] The assay was started the following morning by adding an equal volume of CO2-independent media containing 4% v/v dilution of the GloSensor substrate (Promega, cat #E1291) to all wells. The cell plate was incubated at RT for 2 h in the dark. The Biomek i7 (Beckman Coulter) instrument was used for the liquid handling steps. To generate duplicate dose response curves, 3-fold serially diluted compounds were added in to the cell assay plate to a final volume of 60 μL with final concentrations ranging from 100 nM through 0.03 pM in CO2-independent media containing 0.1% BSA, 0.5 mM IBMX and 0.4% DMSO. […] Curve fitting for EC50 determinations was performed in the Helios module of the software package DAVID. The 4-parameter logistic model, Hill slope was used: y=Ainf+(A0−Ainf)/(1+(x/AC50)^Hill Slope), where y is the functional response; x is the compound concentration; A0 is the minimum value (at 0 dose); Ainf is the maximum value (at infinite dose); AC50 corresponds to the point of inflection (i.e., the point on the sigmoid shaped curve halfway between A0 and Ainf). The EC50 value was represented by the AC50 value calculated from Helios in μM. Emax is the maximal activity detected within the concentration range, derived from the fitted curve.
The HEK293-SNAP-hGLP1R stable cell clone that yielded the desired response was used for human GLP1R cAMP agonist assay.

human GLP1R [2] = target: T2, human GLP1R (Homo sapiens, UniProt P43220); assay: Human GLP1R DERET internalization assay; format: cell-based
human GLP1R [3] = target: T2, human GLP1R; assay: Human GLP1R DERET recycling assay; format: cell-based
human GLP1R (hGLP1R) [4] = target: T1, human GLP1R (hGLP1R); assay: Human GLP1R β-arrestin recruitment assay (PathHunter); format: cell-based; parameters: GeneArt (insert) 93-0164 (CHO-K1-EA parental cells); 93-0491 (pCMV PK vector bundle); host or cells: PathHunter CHO-K1-EA parental cells, single clone 1
Target sequence in this assay (P43220 24-463): as above
Target sequence in this assay (P32121 whole entry partner): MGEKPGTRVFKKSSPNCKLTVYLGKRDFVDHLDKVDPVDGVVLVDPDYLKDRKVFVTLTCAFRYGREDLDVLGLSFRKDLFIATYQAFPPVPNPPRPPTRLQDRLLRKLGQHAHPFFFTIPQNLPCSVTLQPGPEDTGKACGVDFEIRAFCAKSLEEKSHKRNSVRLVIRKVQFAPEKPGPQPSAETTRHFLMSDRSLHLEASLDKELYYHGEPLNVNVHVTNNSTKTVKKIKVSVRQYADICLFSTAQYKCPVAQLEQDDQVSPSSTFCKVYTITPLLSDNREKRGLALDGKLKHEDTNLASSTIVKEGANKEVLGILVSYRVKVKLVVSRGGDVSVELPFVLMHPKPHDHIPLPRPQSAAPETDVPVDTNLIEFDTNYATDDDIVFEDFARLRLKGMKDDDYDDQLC
Description: The extent to which agonists recruited β-arrestin was measured using the PathHunter® β-arrestin assay (DiscoverX). This assay measures binding of β-arrestin to the receptor using an enzyme complementation approach. […] When β-arrestin is recruited to the receptor the enzyme becomes active and generates luminescence in the presence of a chemiluminescent substrate (PathHunter® Detection Kit, DiscoverX cat #93-0001). Luminescence can be measured on a relevant detector. […] The following day, agonists were prepared at 5 times the final required concentration. To generate triplicate dose response curves, compounds were serially diluted 3-fold in assay buffer (HBSS, 10 mM Hepes and 0.1% BSA), then added to the cell assay plate to a final volume of 25 μL and final top concentrations starting at 3 μM or less, depending on the compound. […] The plate was incubated at 37° C., 5% CO2 with humidity for 2 h after adding the compounds to the cells. […] The plate was incubated for an additional hour in the dark at RT. […] Curve fitting for EC50 determinations was performed using GraphPad Prism. The 4-parameter logistic model, Hill slope was used: Y=Bottom+(Top−Bottom)/(1+10^((Log EC50−X)*Hill Slope)), where Y is the functional response; X is the compound concentration; bottom is A0 or the minimum value (at 0 dose); top is Ainf or the maximum value (at infinite dose); EC50 is the point of inflection (i.e., the point on the sigmoid shaped curve halfway between A0 and Ainf). The EC50 value was calculated in μM.

[5] = target: cynomolgus GLP1 receptor (cynoGLP1R), on HEK293-cynoGLP1R F6 cells (cynomolgus) (UniProt F8V479); assay: cell-based or functional assay
[6] = target: T3, mouse GLP1 receptor (mGLP1R) (Mus musculus, UniProt O35659); assay: Mouse GLP1R cAMP agonist assay; format: cell-based; conditions: percent of GLP1(7-36) EC100
T3 construct: host or cells: HEK293T CRE-Luc (called HEK293), clone C3
T3 sequence (O35659 22-463): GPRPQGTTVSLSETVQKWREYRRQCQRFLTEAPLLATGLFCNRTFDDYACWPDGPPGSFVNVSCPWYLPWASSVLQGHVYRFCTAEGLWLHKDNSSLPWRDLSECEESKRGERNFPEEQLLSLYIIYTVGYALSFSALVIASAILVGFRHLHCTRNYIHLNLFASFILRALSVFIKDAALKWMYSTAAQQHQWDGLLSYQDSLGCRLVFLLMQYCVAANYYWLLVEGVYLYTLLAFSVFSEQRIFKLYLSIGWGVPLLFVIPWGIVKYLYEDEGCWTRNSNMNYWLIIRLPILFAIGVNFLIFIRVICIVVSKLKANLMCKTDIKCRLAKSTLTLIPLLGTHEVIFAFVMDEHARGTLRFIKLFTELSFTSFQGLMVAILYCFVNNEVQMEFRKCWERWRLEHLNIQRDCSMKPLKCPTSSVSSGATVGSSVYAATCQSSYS
Description: as §1
The following day, cells were transfected as follows. The DNA complex was prepared as 0.020 μg/μL by adding 37 μg of plasmid DNA encoding mouse GLP1R cDNA (GeneCopoeia, cat #EX-Mm23901-M67; NCBI Reference Sequence: NM_021332.2) in 1758 μL Opti-MEM solution. Then, 112 μL of FuGENE® HD reagent were added to that by mixing carefully. After 5-10 min incubation at RT, 850 μL of DNA complex per well were added to the cells, and mixed thoroughly.

[7] = Acute food intake study in DIO mice; format: in vivo, C57BL/6 mice; conditions: single s.c., 120 μg/kg
Description: Males 24-30 weeks of age were used in the studies. Animals were housed one per cage in a normal light cycle (6:00 am-6:00 pm lights on, otherwise lights off) room, under an approved IACUC protocol. […] At the start of the study, food weight was recorded and animals were subcutaneously dosed with a test compound.

[8] = Efficacy study: body weight loss in DIO mice; format: in vivo, C57BL/6 mice; conditions: s.c., 120 μg/kg QD, Day 30
Description: Males 24-30 weeks of age were used in the studies (n=7/group). Animals were housed one per cage in a normal light cycle room, under an approved IACUC protocol. […] Compound(s) or vehicle were given QD or when indicated 03D (every 3 days). […] Body weight and food intake were measured daily.

[9] = Tolerability assessment: emesis and FI in obese monkeys; format: in vivo; conditions: single dose s.c. 30 μg/kg
Excerpt: Efficacy was defined as a reduction in FI and BW. Tolerability, assessed as reduced and/or absence of emesis and retained interest in a selection of fruits and vegetables and peanuts as treats.

[10] = target: T4, human GLP1 receptor (hGLP1R) fused with a SNAP tag, on HEK293-SNAP-hGLP1R-GloSensor cells (human, UniProt P43220 24-463); assay: cell-based or functional assay
[11] = target: T5, mouse GLP1 receptor (mGLP1R), on HEK293-mGLP1R CRE-Luc (Clone C3) cells (mouse, UniProt O35659 22-463); assay: cell-based or functional assay
T5 sequence (looked up): T3 sequence (O35659 22-463)

[12] = target: human GLP1R (hGLP1R) with a Prolink tag, on CHO-hGLP1R-β-arrestin cells (human, UniProt P43220 24-463); assay: cell-based or functional assay
[13] = target: T4, human GLP1 receptor (hGLP1R) fused with …; assay: cell-based or functional assay; remark: listed apart in the source
[14] = target: cynomolgus GLP1 receptor (cynoGLP1R), on HEK293-cynoGLP1R F6 cells (cynomolgus, UniProt F8V479 24-463); assay: cell-based or functional assay
[15] = target: T4, human GLP1 receptor (hGLP1R) fused with …; assay: cell-based or functional assay; remark: listed apart in the source

T2 sequence (P43220 24-463): as the sequence (P43220 24-463) above

Molecule: CC[C@H](C)[C@H](NC(=O)[C@H](Cc1ccccc1)NC(=O)[C@H](CCC(=O)O)NC(=O)[C@H](CCCCNC(=O)CCOCCOCCOCCOCCOCCOCCOCCOCCOCCOCCOCCOCCOCCOCCOCCOCCOCCOCCOCCOCCOCCOCCOCCOCCNC(=O)C(CCCCCCCCCCC(=O)O)(CCCCCCCCCCC(=O)O)C(=O)O)NC(=O)[C@H](C)NC(=O)[C@H](C)NC(=O)[C@H](CCC(N)=O)NC(=O)CNC(=O)[C@H](CCC(=O)O)NC(=O)[C@H](CC(C)C)NC(=O)[C@H](Cc1ccc(O)cc1)NC(=O)[C@H](CO)NC(=O)[C@H](CO)NC(=O)[C@@H](NC(=O)[C@H](CC(=O)O)NC(=O)[C@H](CO)NC(=O)[C@@H](NC(=O)[C@H](Cc1ccccc1)NC(=O)[C@@H](NC(=O)CNC(=O)[C@H](CCC(=O)O)NC(=O)C(C)(C)NC(=O)[C@@H](N)Cc1c[nH]cn1)[C@@H](C)O)[C@@H](C)O)C(C)C)C(=O)N[C@@H](C)C(=O)N[C@@H](Cc1c[nH]c2ccccc12)C(=O)N[C@@H](CC(C)C)C(=O)N[C@H](C(=O)N[C@@H](CCCNC(=N)N)C(=O)NCC(=O)N[C@@H](CCCNC(=N)N)C(=O)NCC(=O)O)C(C)C [Compound 6]
Emax (human GLP1R (hGLP1R) [1]): 111% | Emax (human GLP1R [2]): 92% | Receptor recycled mean (human GLP1R [3]; maximum receptor recycled as proportion of amount internalized): 70% | T1/2 mean (human GLP1R [3]; rate at which receptor recycled back to the membrane after Exendin 9-39): 1.15 h | Emax (human GLP1R (hGLP1R) [4]): 75% | EC50 (human GLP1R (hGLP1R) [4]; CHO-hGLP1R-β-arrestin cells): 70 nM

Molecule: GLP1(7-36) peptide (from UniProt P01275 98-127) (ligand)
cynoGLP1R cAMP assay (HTRF): EC50 mean [5]: 0.0217 nM | cynoGLP1R cAMP assay (HTRF): Emax mean, % of GLP1(7-36) [5]: 100%

Molecule: semaglutide
Emax mean [6]: 106% | Emax mean (human GLP1R [2]): 91% | Receptor recycled mean (human GLP1R [3]): 64% | T1/2 mean (human GLP1R [3]): 1.677 h | FI @ 24 h [7]: −86 ± 1 % baseline | Weight loss [8]: −17.8 ± 1.2 % baseline | FI reduction observed [9]: Yes

Molecule: semaglutide acetate salt (peptide)
cynoGLP1R cAMP assay (HTRF): EC50 mean [5]: 0.0491 nM

B2: Compound 8 (peptide)
peptide: HXEGTFTSDVSSYLEGQAAKEFIAWLVRGRG
modifications: Aib at position 8 (GLP-1 numbering); side-chain NH of the Lys residue acylated, via a PEG24 linker, with the 14-carbamoyl-heptacosane-1,14,27-tricarboxylic acid moiety (from NHS ester Intermediate 43)
hGLP1R cAMP assay (GloSensor): EC50 mean [10]: 0.105 nM

B4: Compound 5 (peptide)
peptide: B2 peptide
modifications: Aib at position 8 (GLP-1 numbering); side-chain NH of the Lys residue acylated, via a PEG2 linker, with 2-undecyltridecanedioic acid (from NHS ester Intermediate 22)
cynoGLP1R cAMP assay (HTRF): EC50 mean [14]: 0.577 nM | cynoGLP1R cAMP assay (HTRF): Emax mean, % of GLP1(7-36) [14]: 103% | receptor recycling (DERET, after Exendin 9-39): T1/2 mean [15]: 2.25 h

B5: Compound 3: Diastereomer 2 (peptide)
peptide: B2 peptide
modifications: Aib at position 8 (GLP-1 numbering); side-chain NH of the Lys residue acylated, via a PEG24 linker, with (R)-2-undecyltridecanedioic acid (from NHS ester Intermediate 15B, R-enantiomer)
receptor internalization (DERET): EC50 mean [13]: 372 nM

B7: Compound 7 (peptide)
peptide: B2 peptide
modifications: Aib at position 8 (GLP-1 numbering); side-chain NH of the Lys residue acylated, via a PEG24 linker, with the 12-carbamoyl-tricosane-1,12,23-tricarboxylic acid moiety (from NHS ester Intermediate 36)
β-arrestin recruitment (PathHunter): EC50 mean [12]: 178 nM | receptor internalization (DERET): EC50 mean [13]: 367 nM

Now from value to molecule:

hGLP1R cAMP assay (GloSensor): EC50 mean [10]: 0.00573 nM | mGLP1R cAMP assay (HTRF): EC50 mean [11]: 0.034 nM | β-arrestin recruitment (PathHunter): EC50 mean [12]: 70 nM
B1: Compound 6 (peptide)
peptide: B2 peptide
modifications: Aib at position 8 (GLP-1 numbering); side-chain NH of the Lys residue acylated, via a PEG24 linker, with the 11-carbamoyl-henicosane-1,11,21-tricarboxylic acid moiety (from NHS ester Intermediate 29)

mGLP1R cAMP assay (HTRF): EC50 mean [11]: 0.686 nM | β-arrestin recruitment (PathHunter): EC50 mean [12]: > 2000 nM | β-arrestin recruitment (PathHunter): Emax mean, % of GLP1(7-36) [12]: 37% | receptor internalization (DERET): Emax mean, % of GLP1(7-36) [13]: 22%
B3: Compound 9 (peptide)
peptide: B2 peptide
modifications: Aib at position 8 (GLP-1 numbering); side-chain NH of the Lys residue acylated, via a PEG24 linker, with the 15-carbamoyl-nonacosane-1,15,29-tricarboxylic acid moiety (from NHS ester Intermediate 50)

hGLP1R cAMP assay (GloSensor): Emax mean, % of GLP1(7-36) [10]: 105% | β-arrestin recruitment (PathHunter): EC50 mean [12]: 192 nM
B6: Compound 1 (Diastereomeric Mixture) (peptide)
peptide: B2 peptide
modifications: Aib at position 8 (GLP-1 numbering); side-chain NH of the Lys residue acylated, via a PEG24 linker, with 2-undecyltridecanedioic acid (from NHS ester Intermediate 6); diastereomeric mixture at the quaternary carbon of the fatty acid

mGLP1R cAMP assay (HTRF): EC50 mean [11]: 0.428 nM | β-arrestin recruitment (PathHunter): EC50 mean [12]: 235 nM
B8: Compound 4 (peptide)
peptide: B2 peptide
modifications: Aib at position 8 (GLP-1 numbering); side-chain NH of the Lys residue acylated, via a PEG8 linker, with 2-undecyltridecanedioic acid (from NHS ester Intermediate 19)

β-arrestin recruitment (PathHunter): EC50 mean [12]: 133 nM | receptor internalization (DERET): EC50 mean [13]: 331 nM
B9: Compound 2: Diastereomer 1 (peptide)
peptide: B2 peptide
modifications: Aib at position 8 (GLP-1 numbering); side-chain NH of the Lys residue acylated, via a PEG24 linker, with (S)-2-undecyltridecanedioic acid (from NHS ester Intermediate 15A, S-enantiomer)
